The numbers were not newly measured in paper PMC5936680, which cites them from elsewhere.

The Kd is the equilibrium constant for the complex coming apart.

For this data set, the target named is Hemoglobin αβ dimer (Homo sapiens) (UniProt P69905).

As for “Hemoglobin αβ dimer (from UniProt P69905)”, the Kd is 1000 nM.
